Assay results as given in the Human Domainome abundance scans (Beltran et al. 2025).
± gives the uncertainty stated by the source.

B1: Intersectin-1, residues 909 to 971; numbered along this chain, Q15811 (parent)
chain: QGEKVEGLQAQALYPWRAKKDNHLNFNKNDVITVLEQQDMWWFGEVQGQKGWFPKSYVKLISG

Variants of: B1
Experiment: abundance fitness (aPCA) (normalised: wild type 0, dead -1); higher = more abundant; growth selection in yeast, the domain comes from the species named
Settings: Homo sapiens

Variant	abundance fitness
QGEKVEGLQAQALYPWRAKKDNHLNFNKNDVITVLEQQDMWWFGEVPGQKGWFPKSYVKLISG [Q47P]	-0.293 ± 0.19
QGEKVEGLQAQALYPWRAKKDNHLNFNKNDVITVLEQQDMWWFGEVDGQKGWFPKSYVKLISG [Q47D]	-0.546 ± 0.2
QGEKVEGLQAQALYPWRAKKDNHLNFNKNDVITVLEQQDMWWFGEVQGQKGRFPKSYVKLISG [W52R]	-1 ± 0.21
QGEKVEGLQAQALYPWRAKKDNHLNFNKNDVITVLEQQDMWWFGEVQGQKGMFPKSYVKLISG [W52M]	-0.804 ± 0.46
QGEKVEGLQAQALYPWRAKKWNHLNFNKNDVITVLEQQDMWWFGEVQGQKGWFPKSYVKLISG [D21W]	-0.112 ± 0.12
QGEKVEGLQAQALYPWRAKKFNHLNFNKNDVITVLEQQDMWWFGEVQGQKGWFPKSYVKLISG [D21F]	-0.131 ± 0.075
QGEKVEGLQAQALYPWRAKKSNHLNFNKNDVITVLEQQDMWWFGEVQGQKGWFPKSYVKLISG [D21S]	-0.071 ± 0.05
QGEKVEGLQAQALYPWRAKKANHLNFNKNDVITVLEQQDMWWFGEVQGQKGWFPKSYVKLISG [D21A]	0 ± 0.047
QGEKVEGLQAQALYPWRAKKDNHLNFNTNDVITVLEQQDMWWFGEVQGQKGWFPKSYVKLISG [K28T]	0.208 ± 0.24
QGEKVEGLQAQALYPWRAKKDNSLNFNKNDVITVLEQQDMWWFGEVQGQKGWFPKSYVKLISG [H23S]	-0.316 ± 0.14
QGEKVEGLQAQALYPQRAKKDNHLNFNKNDVITVLEQQDMWWFGEVQGQKGWFPKSYVKLISG [W16Q]	-0.396 ± 0.16
QGEKVEGLQAQALYPWRAKKDNHLNFNKNDVITVLEQQDMWWFGEVQGQKGWFPKSYFKLISG [V58F]	-0.821 ± 0.37
QGEKVEGLQAQALYPWRAKKDNHLNFNKNDVITVLEQQDMWWFGEVQGQKGWFPKSYVKLIWG [S62W]	-0.075 ± 0.35
QGEKVEGLQAQALYPWRAKKDNHLNFNKNDVITVLEQQDMWWFGEVQGQKGWFPKSYVKLIDG [S62D]	-0.041 ± 0.22
QGEKVEGLQAQALYPWRAKKDTHLNFNKNDVITVLEQQDMWWFGEVQGQKGWFPKSYVKLISG [N22T]	0.003 ± 0.14
QGEKVEGLQAQALYPWRAKKDMHLNFNKNDVITVLEQQDMWWFGEVQGQKGWFPKSYVKLISG [N22M]	-0.4 ± 0.18
QGEKVEGLQAQALYPWRAKKDNHLNFNKNDVITVLEQQDMWWEGEVQGQKGWFPKSYVKLISG [F43E]	-0.465 ± 0.12
QGEKVEGLQAQALYPWRAKKDNHLNFNKNDVITVLEQQDMWWFGEVQGQKGWFPKSYVGLISG [K59G]	-0.424 ± 0.11
QGEKVEGLQAQALYPWRAKKDNHLNFNKNDVITVLEQQDMWWFGEVQGQKGWFPKSYVKLFSG [I61F]	0.08 ± 0.29
QGEKVEGLQAQAEYPWRAKKDNHLNFNKNDVITVLEQQDMWWFGEVQGQKGWFPKSYVKLISG [L13E]	-0.267 ± 0.26
QGEKVEGLQADALYPWRAKKDNHLNFNKNDVITVLEQQDMWWFGEVQGQKGWFPKSYVKLISG [Q11D]	-0.728 ± 0.47

Variant	abundance fitness
QGEKVEGLQAAALYPWRAKKDNHLNFNKNDVITVLEQQDMWWFGEVQGQKGWFPKSYVKLISG [Q11A]	-0.239 ± 0.094
QGEKVEGLQALALYPWRAKKDNHLNFNKNDVITVLEQQDMWWFGEVQGQKGWFPKSYVKLISG [Q11L]	-0.247 ± 0.098
QGEKVEGLQAQALYPWRAKKDNHLNFNKNDVITVLEQQDMWWFGEVQGQKGWGPKSYVKLISG [F53G]	-0.569 ± 0.29
QGEKVEGLQAQALYPWRAKKDNHLNFNKNDVITVLEQQDMWQFGEVQGQKGWFPKSYVKLISG [W42Q]	-0.837 ± 0.24
QGEKVEGLQAQALYPWRAKKDNHLNFNKNDVITVLEQQDFWWFGEVQGQKGWFPKSYVKLISG [M40F]	-0.233 ± 0.38
QGEKVEGLQAQALYPWRAKKDNHLNFNKNDVITVLEQQDGWWFGEVQGQKGWFPKSYVKLISG [M40G]	-0.109 ± 0.11
QAEKVEGLQAQALYPWRAKKDNHLNFNKNDVITVLEQQDMWWFGEVQGQKGWFPKSYVKLISG [G2A]	-0.028 ± 0.12
QDEKVEGLQAQALYPWRAKKDNHLNFNKNDVITVLEQQDMWWFGEVQGQKGWFPKSYVKLISG [G2D]	-0.265 ± 0.086
QGEKVEGLQAQALYPWRAKSDNHLNFNKNDVITVLEQQDMWWFGEVQGQKGWFPKSYVKLISG [K20S]	-0.011 ± 0.039
QGEKVEGLQAQALYPWRAKKDNHMNFNKNDVITVLEQQDMWWFGEVQGQKGWFPKSYVKLISG [L24M]	-0.611 ± 0.17
QGEKVEGLQAQALYPWRAKKDNHNNFNKNDVITVLEQQDMWWFGEVQGQKGWFPKSYVKLISG [L24N]	-0.563 ± 0.19
QGEKVEGLQAQALYPWRAKKDNHLNFNKNDVIFVLEQQDMWWFGEVQGQKGWFPKSYVKLISG [T33F]	-0.242 ± 0.22
QGEKVEGLQAQALYPWRAKKDNHLNFNKNDVITVLEQQDMWWFGEVQGQKGWFPKGYVKLISG [S56G]	-0.147 ± 0.068
QGEKVEGLQAQALYPWKAKKDNHLNFNKNDVITVLEQQDMWWFGEVQGQKGWFPKSYVKLISG [R17K]	-0.359 ± 0.36
QGEKVEGLQAQALYPWEAKKDNHLNFNKNDVITVLEQQDMWWFGEVQGQKGWFPKSYVKLISG [R17E]	-0.049 ± 0.18
QGEKVEGLQAQALYPWQAKKDNHLNFNKNDVITVLEQQDMWWFGEVQGQKGWFPKSYVKLISG [R17Q]	-0.066 ± 0.15
QGEKVEGLQAQALYPWRAKKDNHLNFNKNDVITVLEQQDMWWFGEVQWQKGWFPKSYVKLISG [G48W]	-0.939 ± 0.41
QGEKVEGLQAQALYPWRAKKDNHLNFNKNDVITVLEQQDMWWFGEVQSQKGWFPKSYVKLISG [G48S]	-0.149 ± 0.097
QGEKVCGLQAQALYPWRAKKDNHLNFNKNDVITVLEQQDMWWFGEVQGQKGWFPKSYVKLISG [E6C]	-0.174 ± 0.2
QGEKVSGLQAQALYPWRAKKDNHLNFNKNDVITVLEQQDMWWFGEVQGQKGWFPKSYVKLISG [E6S]	-0.16 ± 0.12
QGEKVEGLQAQALYPWRAKKDNHLNFNKEDVITVLEQQDMWWFGEVQGQKGWFPKSYVKLISG [N29E]	-0.024 ± 0.18
